Measurements published in FireProtDB (doi:10.1016/j.jmb.2004.09.082).

Conditions: Escherichia coli (strain K12); pH 7.8; 25 °C; GdnHCl; Chromatography; Tris-HCl 5 mM; KCl 200 mM; reversible: yes; whole UniProt chain shown

B1: Co-chaperonin GroES wild type, P0A6F9 (protein)
chain: MNIRPLHDRVIVKRKEVETKSAGGIVLTGSAAAKSTRGEVLAVGNGRILENGEVKPLDVKVGDIVIFNDGYGVKSEKIDNEEVLIMSESDILAIVEA
B1 gave a denaturant m value of 2.3 kcal/mol/M and an unfolding free energy of 2.3 kcal/mol.
